Results reported in the DeepSol protein solubility set.

Experiment: soluble on expression in E. coli; label from the status in PepcDB or PDB records

Sequence | soluble on expression in E. coli
MGSDKIHHHHHHMEQLRAELSHLLGEKLSRIECVNEKADTALWALYDSQGNPMPLMARSFSTPGKARQLAWKTTMLARSGTVRMPTIYGVMTHEEHPGPDVLLLERMRGVSVEAPARTPERWEQLKDQIVEALLAWHRQDSRGCVGAVDNTQENFWPSWYRQHVEVLWTTLNQFNNTGLTMQDKRILFRTRECLPALFEGFNDNCVLIHGNFCLRSMLKDSRSDQLLAMVGPGLMLWAPREYELFRLMDNSLAEDLLWSYLQRAPVAESFIWRRWLYVLWDEVAQLVNTGRFSRRNFDLASKSLLPWLA | not soluble
DSLVFVQTDKSIYKPGQTVKFRVVSMDENFHPLNELIPLVYIQDPKGNRIAQWQSFQLEGGLKQFSFPLSSEPFQGSYKVVVQKKSGGRTEHPFTVEEFVLP | soluble
GPGSMMEGSPSEVHVHSSMAMGLQERPPLELVSHASEVSCLTINDNYDMWNASMYPNLNSGFDASLTSATTPDTTVARFAPAMRPHRKQQLSHQMMPLPARGEQTMSDIDSEVVLWDRPPTQDVLGSPAASGL | soluble
MSLTRKEKPAKVGGFFVLSYVLGGRLAPASPVASDSNIRLPGGYINNSQKTTIDAVRAALSAARMGTFDTAAGVQSDDDPAALLLYAWNAEVSGAFLAPLHVCEVVIRNAVSDALEALYGPRWPWSATFERSLPDPKQGYSPRRDLQSARRSAQTTGKVIPELKFVFWQKMFTGRYDTRIWDQNLRRVMPNIDPAKPVAALRNAIYGDLERVRLLRNRIAHHEPMFARALADDYQTILVLVTYRCAVTAAWLDSHQTATAIITAKPEGHHHHHH | not soluble
MAHHHHHHMIRWAAVLRCGAHGVREDRQALARHHLNLLDKRHWELTTPSRALPVVEVLIRSGVLMDRLEKSSTKPLASLTPSMTKKERSLVQKLSHMLHQASPPTACRVSRNAVEEDEAVRAAYSAACATGACTIDVVVDLAFVRHLRFPLSALMLLELVESRCVKVCWTRGKPCLSKELLDSICDLFAEHEQSLDFRATWWLLSLLGGGTQVRDWPITLSAGKRLFRLCVRRIHYLLPDLPLEDLLLAYVQLARIEGYEKPFIVLGEMERLLLATSSDEYTGVSTNVLLRFMTMPFAVRHADLNLRLCAGWSAASRITEFTQEECLAAFAIVAALHEGCVAESAAAVAALRDWEMLHDALFAQVFCVAHEMTAADCFRILDQSELINVSGWGITVPQMLLEKLKKRILSECTHYAMDECRVPETAELLLRVALGLQALMQRYTVLPSSAADEHAVAECILLLERCITVLPPHG | not soluble
MGRNDSEFPSDEELKKLAGKIKGAAIRANTKILKSYDPDTYGNYLDQLDGIRSQAEWLGTAFDDFLKPSPWDFDDMLKALDEIASDLGQAVGETEIKNGIVQGRIDTTKQFLGEGGWKGALADSFKMDYLEPIGSHIAANQGAVTLVTHDGLQAMRDIYGKARENLKDLGEKAVTAFEQADGISASDLKTLLTVLSAAFGLGTAVLSAFAPAAAAGAGIASALVSGGIAVGSDKVGEDEESELAADYPDKVEENFKNALEKLKEQITTMEDELIKVLQKGTSDIASIVWGEKLDRLNGFSALFGMGNQSLLAPKVPDLSMVAFGDDPGKLKDGLVQVSG | not soluble
GMSLAPWRGAIAHALHRNRSLVYARYLQLATVQPNGRPANRTLVFRGFLEDTNQLRFITDTRSAKADQIQQQPWAEICWYFPNTREQFRMAGDLTLISSDDSHQDLQPARIAMWQELSDAARLQFGWPYPGKPRIKESGAFEPSPPDPIEPVPNFCLLLLDPVQVDHLELRGEPQNRWLYHRNDQQEWSSEAINP | soluble
MKFMQYTEKVMQHFMNPHNVGVIENPDGYGKVGNPSCGDIMEIFIKVDNNIISDVKFRTFGCASAIASSSISTDMIIGKTVEEALKLTNKQVVDELGGLPAVKMHCSVLAEEAIKMAIEDYISKRDGKLEHHHHHH | soluble
MAQPKFVVAEIVEMEDHPDSDHLHICKVNVGFADPVQIVCGAPNAALGLKTVAALPGAMMPNGSLIFPGALRGVQSYGMLCSARELELPNAPEVRGIIELSSDLSAGKAFDSETMLEHHHHHH | not soluble
MSLDGMPAKQQHNNTGESVELHFHYPIKGKQEPKNSHLVVLIEPKIEINKVIPESYQKEFEKSLFLQLSSFLERKGYSVSQFKDASEIPQDIKEKALLVLRMDGNVAILEDIVEESDALSEEKVIDMSSGYLNLNFVEPKSEDIIHSFGIDVSKIKAVIERVELRRTNSGGFVPKTFVHRIKETDHDQAIRKIMNQAYHKVMVHITKELSKKHMEHYEKVSSEMKKRKEGHHHHHH | soluble
FSIAVTGATGQLGGLVIQHLMAAVPASQIIAIVRNVEKASTLADQGVEVRHGDYNQPESLQKAFAGVSKLLFISGPHYDNTLLIVQHANVVKAARDAGVKHIAYTGYAFAEESIIPLAHVHLATEYATRTTNIPYTFLRNALYTDFFVNEGLRASTESGAIVTNAGSGIVNSVTRNELALAAATVLTEEGHENKTYNLVSNQPWTFDELAQILSEVSGKKVVHQPVSFEEEKNFMVNAGVPEPFAEITAAIYDAISKGEASKTSDDLQKLIGSLTPLKETVKQALKM | soluble
MSLTEKTKEVRLDFFEALGMVTALMMDCDYKHWFVADISRNIIPALQAGQCKVYFDEEGRPNAFVTWALVDNDDHEALLREGCNPPPGKWASGNHLWFIDIVAPVGNILPRIKRDLHQNYFADHNKAYAIRSKADGAIRRVQVWKNPLVTRPTRSFRIGADIETHDDEGHHHHHH | soluble
MKSFALVRADDSDKVKIALHDLERYGHIQFSATPKCIEPNYADELLVSVMGVSLKSKCNSAALVELNNHAGAAISRLKKIHPPAHIIIISPRHKMFEELAGKFPKYPEFDRTFNHQKSPQGLDMIQEKGESSNA | not soluble
MRGSHHHHHHTDPLPRLPVPPLQQSLDHYLKALQPIVSEEEWAHTKQLVDEFQASGGVGERLQKGLERRARKTENWLSEWWLKTAYLQYRQPVVIYSSPGVMLPKQDFVDLQGQLRFAAKLIEGVLDFKVMIDNETLPVEYLGGKPLCMNQYYQILSSCRVPGPKQDTVSNFSKTKKPPTHITVVHNYQFFELDVYHSDGTPLTADQIFVQLEKIWNSSLQTNKEPVGILTSNHRNSWAKAYNTLIKDKVNRDSVRSIQKSIFTVCLDATMPRVSEDVYRSHVAGQMLHGGGSRLNSGNRWFDKTLQFIVAEDGSCGLVYEHAAAEGPPIVTLLDYVIEYTKKPELVRSPMVPLPMPKKLRFNITPEIKSDIEKAKQNLSIMIQDLDITVMVFHHFGKDFPKSEKLSPDAFIQMALQLAYYRIYGQACATYESASLRMFHLGRTDTIRSASMDSLTFVKAMDDSSVTEHQKVELLRKAVQAHRGYTDRAIRGEAFDRHLLGLKLQAIEDLVSTPDIFMDTSYAIAMHFHLSTSQVPAKTDCVMFFGPVVPDGYGVCYNPMEAHINFSLSAYNSCAETNAARLAHYLEKALLDMRALLQSHPRAKLISEEDLSLISG | soluble
MGLVDYAGSESESDEEMETQQKNSLAPQNQQLVDDEAFFDNTEKSSSPNMNKEDVLEELVKPKEWEVKLAEKARRKLEKKALKKAQKEERKKEKKLAKKAMKVEKIPKIGGGIQKAKGKVIISAFGALAGITGENSSDDSDNEGAAVATVKPKLGNSFLSNLPAPKGRDNRSDGANVFDKSMVPHSVSKKATPAAAPVFKPAPAPKLPDDSDDDDDGPTDFFGFSSAPTRKESEIPSEIPYMTMNSSMDVVGPSRPDEGMDPRQMYEMPEEEEDVQEGPSASNAWLHRKINDEQAHKLLMRFSHDIGQEERRSINEMANSIVDVNVDDALGPDVKTNIIKNLGHRAFVEATSAPLPQVQTQGQMSRRKHQITYLASLAVSREEQLKDQWADQKQSKRMARQKYGF | not soluble
MGSDKIHHHHHHMAEDLTPEGGDRAPSKDGSVPAYAGRQSADPGWEWGKIRGDFWKHRNEKPLYSIDGSNVDKYAEQLTPGQVQLVKQKKGYRMDVYPSHRECQASDFVAQNSKANLTGAKLDSTGEQLQTAILPGVPFPQPKNGAEAMLNYLMRYRGEGIEWPSVVTTVSPRPGSSDWIDAISTATQYFPASKQGKRTPHDVDQLSSATFFKMESPPALAGQAFVQRQFFNKDPETFYYFPGQRRVRRMPAYTHDAPAIGFENQYLIDEANMFFGAIDRFDWKLAGKKEMIVPYNAFGMYKFNDKLHDVVTPDGIAAANRRYEMHRVWVVEATLKPSARHVASKKVFYLDEDSWLALVANDYDAQGKLWRVRESYPIPVWELGGACDNEPFAQYDLINGRYVTDQSTIGQGKDIRWYEKTNDPRFKPDFFTSESLRSVSER | not soluble
MAILRLEPQQLYSVADLENMPCKSTKELPPIDEIVGQERAQKAVEFAMSIKEKGYNIYAIGQNGLGKRTMILRYLNRHQHDADALFDWCYVANFEDTRTPKVLKLPCGIGNKLRVDIEALMGKLLNALPLAFDNEMYFSRADRLKNQLANKQQNELDRISREAKEHGISLTITSQGDYQFVAMNGDELHTEESFDALSKKEQEQFSDSIDALEVSLRSMVRELTEWEDTYSDKIKKLNDEVTLDVITHFIKKLKVDYSEYSEIKTYLTELQKDIVENADIFLDQSGEQGEIAAASLDKKLPRRYKVNVLVSRNNSDFPIVVEENPNYHSLFGSIETATFKGTVFTDFSLIRAGSLHKANGGVLLMDAQKVLEQPYVWDGLKRALRARQLSFTSLEKEVTLTGAVSLDPEPIPLDIKIILFGDYRTYQLLQHYDPEFSELFRVTADFEDEMKRTPESELHYARFISSVVHDNNMLHCDRKAIARIIEYSSRLSGDQSKLSLHSANIANLLRESNYVARQANSNMIRIGHVEEAMKNQEMRVSRLRDSVMETFLNGTT | not soluble
MSLRRGIYHIENAGVPSAIDLKDGSSSDGTPIVGWQFTPDTINWHQLWLAEPIPNVADTFTLCNLFSGTYMDLYNGSSEAGTAVNGWQGTAFTTNPHQLWTIKKSSDGTSYKIQNYGSKTFVDLVNGDSSDGAKIAGWTGTWDEGNPHQKWYFNRMSVSSAEAQAAIARNPHIHGTYRGYILDGEYLVLPNATFTQIWKDSGLPGSKWREQIYDCDDFAIAMKAAVGKWGADSWKANGFAIFCGVMLGVNKAGDAAHAYNFTLTKDHADIVFFEPQNGGYLNDIGYDSYMAFY | soluble
MIEAALENPVPIKSQLSPTPRYFGSCKWFNVSKGYGFVIDDITGEDLFVHQSNLNMQGFRSLDEGERVSYYIQERSNGKGREAYAVSGEVEGQGLKGSRIHPLGRKKAVSLRCFRCGKFATHKAKSCPNVKTDAKVCYTCGSEEHVSSICPERRRKHRPEQVAAEEAEAARMAAEKSSPTTSDDDIREKNSNSSDE | soluble
MTESFAQLFEEFLNETQFQQGTIVKGTVVAIENGYVLVDAGLKSESAIPAEQFKNAAGELEVQVGSQVDVALDAVEDGFGETQLSREKAKRHEAWIVLEKAYEEAATVIGIINGKVKGGFTVELNGIRAFLPGSLVDVRPIRDTAHLENKELEFKVIKLDQKRNNVVVSRRAVIESESSVERDELLETLQEGTEVKGIVKNLTDYGAFVDLGGVDGLLHITDMAWKRVKHPSEIVNVGDEILVKVLKFDRDRTRVSLGLKQLGEDPWVAIAKRYPEGHKLSGRVTNLTDYGCFVEIEEGVEGLVHVSEMDWTNKNIHPSKVVNVGDEVEVMVLDIDEERRRISLGLKQCKANPWQSFAEAQAKGDKVTGKIKSITDFGIFIGLEGGIDGLVHLSDISWNVPGEEAVREFKKGDEISAVVLAVDAERERISLGIKQMENDPFNAYVSDNKKGALVNGTVTAVDAKGATIELEDGVEGYIRASEVSRDRIEDASLILNVGDKVEAKFTGVDRKNRVINLSIKAKDEAEEQEVMATLNKQDEAAFGNAMADAFKAAKGELEHHHHHH | not soluble
